These results are taken from patent publication US20110014669A1, “Production of 1,4 Butanediol in a Microorganism” (Microbia, Inc., priority 2009, published 2011).

Holding throughout (design): key: +: measureable activity detected in the assay; −: no measurable activity detected in the assay
Series [1] concerns 5-hydroxy-L-norvaline. Briefly: Enzyme assay, aminotransferase (step A4), cell lysates. The format is biochemical. As to conditions: BDO biosynthetic pathway step A4. As to the method: (§1) Enzyme expression and crude lysate preparation. The enzymatic activity of each candidate enzyme is evaluated, first in E. coli and subsequently in C. glutamicum. It will be apparent to one of skill in the art that the expression and lysate preparations may need to be modified depending on the host cell and recombinant gene of interest.
(§2) E. coli: E. coli strains transformed with expression clones, for example, pUC18 or MB4124 based clones having a medium strong constitutive promoter regulating the recombinant gene of interest, are grown aerobically in LB medium (Difco) containing the appropriate antibiotic(s). At an OD600 of 0.5, IPTG is added to a final concentration of 0.25 mM. The cultures are grown to a final OD600 of 1.5 at which time the cells are collected and harvested by centrifugation. Cell pellets are resuspended in BugBuster (Novagen) reagent containing benzonase and lysozyme. Alternatively, E. coli strains transformed with expression clones, are grown overnight aerobically at 37° C. in BHI containing the appropriate antibiotic(s). 300 μL of fresh overnight culture is used to inoculate 2.7 mL BHI containing 0.25 mM IPTG and the appropriate antibiotic. The cultures are grown aerobically for 4-5 hours at 37° C. at which time the cells are collected and harvested by centrifugation. Cell pellets are frozen at −80° C. for at least 15 minutes, then thawed and resuspended in BugBuster (Novagen) reagent. Lysis and lysate collection are performed according to the manufacturer's instructions and, for example, may involve use of a sonicator and/or French press. Cleared lysates are stored on ice until enzyme assays are performed.
C. glutamicum: C. glutamicum strains transformed with MB4124 expression clones containing the recombinant gene of interest are grown aerobically in BHI broth supplemented with the proper antibiotic(s). At an OD600 of 0.5, IPTG is added to a final concentration of 0.25 mM. The cultures are grown to a final OD600 of 1.5 at which time the cells are collected and harvested by centrifugation. The pellet is washed once in one volume of water and resuspended in lysis buffer (1.0 ml 1.0 M HEPES buffer, pH 7.5, 0.5 ml 1M KOH, 10 μl 0.5M EDTA, protease inhibitor cocktail, water to 5 ml; the final pH will vary depending on the individual enzyme being tested) and one volume of 0.1 mm acid washed glass beads. The mixture is repeatedly alternately vortexed and held on ice for 15 seconds, eight times. After centrifugation for 5 min at 4,000 rpm, the supernatant lysate is removed and respun for 20 min at 10,000 rpm. Alternatively, C. glutamicum strains transformed with MB4124 expression clones containing the recombinant gene of interest are grown aerobically overnight in BHI broth supplemented with the proper antibiotic(s). Five mL of fresh overnight culture is used to inoculate 200 mL BHI containing 0.25 mM IPTG and the appropriate antibiotic. The cultures are grown aerobically at 30° C. for 5-7 hours at which time the cells are collected and harvested by centrifugation at 4° C. The pellet is resuspended in 15 mL ice cold 39 mM KH2PO4, 61 mM K2HPO4, 0.5 M KCl and lysed using a BioSpec BeadBeater and following the manufacturer's instructions. […]
Protein Assays. Protein concentrations in lysates are determined according to the methods of Bradford et al. (Anal. Biochem. 72:248-254 [1976]) or by the method of Smith et al. (Anal. Biochem. 150(1):76-85 [1985]) and lysates are assayed according to the methods below. […]

Series [2] has as its system 5-hydroxy-2-oxopentanoate. Briefly: Enzyme assay, decarboxylase (step A5), aldehyde dehydrogenase linked reaction. The format is biochemical. As to conditions: BDO biosynthetic pathway step A5. As to the method: as §1, §2
C. glutamicum: C. glutamicum strains transformed with MB4124 expression clones containing the recombinant gene of interest are grown aerobically in BHI broth supplemented with the proper antibiotic(s). At an OD600 of 0.5, IPTG is added to a final concentration of 0.25 mM. The cultures are grown to a final OD600 of 1.5 at which time the cells are collected and harvested by centrifugation. The pellet is washed once in one volume of water and resuspended in lysis buffer (1.0 ml 1.0 M HEPES buffer, pH 7.5, 0.5 ml 1M KOH, 10 μl 0.5M EDTA, protease inhibitor cocktail, water to 5 ml; the final pH will vary depending on the individual enzyme being tested) and one volume of 0.1 mm acid washed glass beads. The mixture is repeatedly alternately vortexed and held on ice for 15 seconds, eight times. After centrifugation for 5 min at 4,000 rpm, the supernatant lysate is removed and respun for 20 min at 10,000 rpm. Alternatively, C. glutamicum strains transformed with MB4124 expression clones containing the recombinant gene of interest are grown aerobically overnight in BHI broth supplemented with the proper antibiotic(s). Five mL of fresh overnight culture is used to inoculate 200 mL BHI containing 0.25 mM IPTG and the appropriate antibiotic. The cultures are grown aerobically at 30° C. for 5-7 hours at which time the cells are collected and harvested by centrifugation at 4° C. The pellet is resuspended in 15 mL ice cold 39 mM KH2PO4, 61 mM K2HPO4, 0.5 M KCl and lysed using a BioSpec BeadBeater and following the manufacturer's instructions. The lysate is centrifuged at 16,000 RPM at 4° C. for 30 minutes and the supernatant retained on ice as the extract.
Protein Assays. Protein concentrations in lysates are determined according to the methods of Bradford et al. (Anal. Biochem. 72:248-254 [1976]) or by the method of Smith et al. (Anal. Biochem. 150(1):76-85 [1985]) and lysates are assayed according to the methods below.
Enzyme Assays. Enzyme assays are performed on the cell lysates prepared above. The activity for each recombinant enzyme is compared to a lysate from a vector only control culture which is generated in a fashion identical to the recombinant enzyme lysate. […]

Series [3] concerns 5-hydroxy-2-oxopentanoate. Briefly: In vitro substrate conversion assay, step A5. The format is biochemical. The conditions noted are these: BDO biosynthetic pathway step A5. As to the method:
In Vitro Substrate Conversion. Most of the enzyme assays described above are based on recording changes in absorbance at a given wavelength. In addition to such spectrophotometric readouts, these assays can also be analyzed by more direct methods using an endpoint assay where the reaction is terminated after a given period of time and the mixture is analyzed via HPLC or LC-MS methods.
(§3) The aldehyde dehydrogenase linked reaction was used for step A5.

In series [4] the test system is 5-hydroxy-2-oxopentanoate. Briefly: Bioconversion (feeding) assay, step A5. The format is cell-based. The conditions noted are these: BDO biosynthetic pathway step A5. As to the method: Bioconversion assays. The activity of a candidate enzyme towards a given substrate can also be evaluated in vivo using a simple feeding assay. A strain expressing the candidate enzyme is grown in the presence of the substrate for which activity is desired. Samples of the culture are removed periodically and the cells are removed via centrifugation. The culture supernatant is then analyzed (e.g., by LC-MS) to determine how much of the substrate has been removed and how much of a given product is present.
as §3

B1: BATlY1: Enzyme candidate for BDO biosynthetic pathway step A4, SEQ ID NO. 31 (protein, listed as Yarrowia lipolytica)
chain: MLRNNLRSLSRAFSTSSMRLGAGMDASKLQITKTKSPKEKQAPKDLIFGHTFTDHMLTVEWTAKDGWAAPQITPYGPLELDPSAVVLHYAFECFEGLKAYKDESGNVRLFRVDKNMHRMNTSAERICLPEFDGAEAAKLIGQLAKLDSAWIPEGRGYSMYLRPSLIGTTAALGVGTPDKALFYVIASPVGPYYPTGFKAVKLEATDYAVRAWPGGVGNKKLGANYAPCIKPQQQAASRGYQQNLWLFGDEGNITEVGTMNAFFVFERNGKKELVTAPLDGTILEGVTRDSILELARERLPSADWIVSERYCTIKEVAEAAEKGELVEAFGAGTAAVVSPIKEIGWGEKTINIPLQPGKEAGKLTETVNEWIGDIQYGKDEYKGWSKVV
As for B1, in series [1], the “Enzyme Assay” value is on record as “−”.

B2: PdcZm: Enzyme candidate for BDO biosynthetic pathway step A5, SEQ ID NO. 38 (protein, listed as Zymomonas mobilis)
chain: MSYTVGTYLAERLVQIGLKHHFAVAGDYNLVLLDNLLLNKNMEQVYCCNELNCGFSAEGYARAKGAAAAVVTYSVGALSAFDAIGGAYAENLPVILISGAPNNNDHAAGHVLHHALGKTDYHYQLEMAKNITAAAEAIYTPEEAPAKIDHVIKTALREKKPVYLEIACNIASMPCAAPGPASALFNDEASDEASLNAAVEETLKFIANRDKVAVLVGSKLRAAGAEEAAVKFADALGGAVATMAAAKSFFPEENPHYIGTSWGEVSYPGVEKTMKEADAVIALAPVFNDYSTTGWTDIPDPKKLVLAEPRSVVVNGIRFPSVHLKDYLTRLAQKVSKKTGALDFFKSLNAGELKKAAPADPSAPLVNAEIARQVEALLTPNTTVIAETGDSWFNAQRMKLPNGARVEYEMQWGHIGWSVPAAFGYAVGAPERRNILMVGDGSFQLTAQEVAQMVRLKLPVIIFLINNYGYTIEVMIHDGPYNNIKNWDYAGLMEVFNGNGGYDSGAGKGLKAKTGGELAEAIKVALANTDGPTLIECFIGREDCTEELVKWGKRVAAANSRKPVNKLL
In the case of B2, the “Enzyme Assay” value in series [2] was “−”. In addition, the “In Vitro Substrate Conversion Assay” value in series [3] was “−”. Also, the “Bioconversion Assay” value in series [4] is given as “−”.

B3: BioACg: Enzyme candidate for BDO biosynthetic pathway step A4, SEQ ID NO. 29 (protein, listed as Corynebacterium glutamicum)
chain: MENPSLRELDHRNIWHPYAAPGVRNRLVTKTDGVFLTLEDGSTVIDAMSSWWSAIHGHGHPRLKAAAQKQIDTMSHVMFGGLTHEPAIKLTHKLLNLTGNSFDHVFYSDSGSVSVEVAIKMALQASKGQGHPERTKLLTWRSGYHGDTFTAMSVCDPENGMHSLWKGTLPEQIFAPAPPVRGSSPQAISEYLRSMELLIDETVSAIIIEPIVQGAGGMRFHDVALIEGVATLCKKHDRFLIVDEIATGFGRTGELFATLSNGLQPDIMCVGKALTGGFMSFAATLCTDKVAQLISTPNGGGALMHGPTFMANPLACAVSHASLEIIETGMWQKQVKRIEAELIAGLSPLQHLPGVADVRVLGAIGVIEMEQNVNVEEATQAALDHGVWIRPFGRLLYVMPPYITTSEQCAQICTALHAAVKGK
Regarding B3, in series [1], the “Enzyme Assay” value was “−”.

B4: BcaTLp: Enzyme candidate for BDO biosynthetic pathway step A4, SEQ ID NO. 34 (protein, listed as Lactobacillus plantarum)
chain: MADVQLDWNNLGFEYRNLPYRYRAYWKDGAWYKKELTGDATLHISEGSTALHYGQQDFEGLKAYRTKDGSVQLFRPDRNAARMQTSCERLLMPQVPTDMFVDAVKQVVKANQDYVPPYGTGATLYLRPLMIGVGGNIGVHPAQEYIFTVFAMPVGSYFKGGMTPTNFTTSEYDRAAHKGTGAYKVGGNYAASLFPGQEAHANGFSDCVYLDPVEHRKIEEVGSANFFGITKDGTFVTPKSPSILPAVTKYSLLYLAEHKFGMKTEQGDVYIDDLDRFAEAGACGTAAVISPIGGLEHQGKLHVFYSETEVGPVTKKLYDELTGIQFGDREAPEGWVQKVELD
As for B4, in series [1], the “Enzyme Assay” value was “−”.

B5: PdcBc: Enzyme candidate for BDO biosynthetic pathway step A5, SEQ ID NO. 42 (protein, listed as Bacillus cereus)
chain: MKKQYTVSTYLLDRLHELGIEHIFGVPGDYNLAFLDDVVAHENLKWIGNCNELNAAYAADGYARIKGIAALITTFGVGELSAINGIAGSYAENVPVIKITGTPPTKVMENGAIVHHTLGDGKFDHFSNMYREITVAQTNVTPEHAAEEIDRVLRACWNEKRPVHINLPIDVYNKPINKPTEPIINKPILSNKEALNKMLLHAISKINSAKKPVILADFEVDRFHAKENLHQFVEKTGFPIATLSMGKGIFPEKHPQFIGIYTGDVSSPYLRKRIDESDCIISIGVKLTDTITGGFTQGFTKEQVIEIHPYTVKIIDKKYGPVVMQDVLQHLSDSIEHRNKDTLDVKPFILESSPFTEEFIPKAQMVTQKRFWQQMYHFLQENDVLIVEQGTPFFGSSAIPLPNNTAYVGQPLWGSIGYTLPALLGTQLANLSRRNILIIGDGSFQVTAQELSTILRQNLKPIIFLINNNGYTVERAIHGQNQLYNDIQMWDYNKLSMVFGAEEKSLTFKVENEAELAAVLTNITFNKNQLIFIEVIMSQSDQPELLAKLGKRSGQQNS
With B5, the “Enzyme Assay” value in series [2] is “−”. Moreover, in series [3], the “In Vitro Substrate Conversion Assay” value was “−”. For the same molecule, in series [4], the “Bioconversion Assay” value is reported as “−”.

B6: IlvECg: Enzyme candidate for BDO biosynthetic pathway step A4, SEQ ID NO. 28 (protein, listed as Corynebacterium glutamicum)
chain: MYLSGSRCTLKSMTSLEFTVTRTENPTSPDRLKEILAAPKFGKFFTDHMVTIDWNESEGWHNAQLVPYAPIPMDPATTVFHYGQAIFEGIKAYRHSDETIKTFRPDENAERMQRSAARMAMPQLPTEDFIKALELLVDADQDWVPEYGGEASLYLRPFMISTEIGLGVSPADAYKFLVIASPVGAYFTGGIKPVSVWLSEDYVRAAPGGTGDAKFAGNYAASLLAQSQAAEKGCDQVVWLDAIEHKYIEEMGGMNLGFIYRNGDQVKLVTPELSGSLLPGITRKSLLQVARDLGYEVEERKITTTEWEEDAKSGAMTEAFACGTAAVITPVGTVKSAHGTFEVNNNEVGEITMKLRETLTGIQQGNVEDQNGWLYPLVG
As to B6, the “Enzyme Assay” value in series [1] is “−”.

B7: PdcSs: Enzyme candidate for BDO biosynthetic pathway step A5, SEQ ID NO. 41 (protein, listed as Staphylococcus saprophyticus)
chain: MKKRVGQYLMDCISDVGVDKVFGVPGDFNLTFLDDIISRDDMEWIGNTNELNASYAADGYARMKGIAAMVTTFGVGELSAVNGIAGSYAERVPVIQITGAPTRAVESAGKYVHHSLGEGNFDDYRNMYASITTAQAYITPENAQSEIPRVINAALYEKRPVHIHLPIDVANSEIDVATPFEIEQRPQTDVTKYMTMVKDKLQSADKPVIITGHEINSFKLHEKLEQFVKQSQIPVVQLSLGKGAFNETSPYYMGIYDASLAEEDIRNYVDQSDAILNIGAKLTDSATAGYSYQFDIDDVVMINHHHFKMNETKDTEVSLVDLLDGLNAINYVNNAEFPKFKQPKAHDYDLTDEPLTQETYFKMMQDFIREEDVILAEQGTSFFGAYDLALKHNNKFIGQPLWGSIGYTLPATLGTQMADTSRRNLLLIGDGSLQLTVQEISTMIREKIKPIIFVINNDGYTVERKIHGENAMYNDIKMWDYKLLPTVFGGKDEVQVHDVNTSEAFQKVLLQIEAQPDTMHFIEVKMGVHDAPHKLNAIGQAFAKQNG
For B7, the “Enzyme Assay” value in series [2] is on record as “−”. The “In Vitro Substrate Conversion Assay” value in series [3] was “−”. Moreover, in series [4], the “Bioconversion Assay” value is reported as “−”.
